Source: FireProtDB (doi:10.1093/protein/12.7.581)
Where “and” joins values, the source holds several entries; their conditions need not be identical. Equal values may be shown once.

B1: Alpha-lactalbumin, P00711 (parent)
chain: MMSFVSLLLVGILFHATQAEQLTKCEVFRELKDLKGYGGVSLPEWVCTTFHTSGYDTQAIVQNNDSTEYGLFQINNKIWCKDDQNPHSSNICNISCDKFLDDDLTDDIMCVKKILDKVGINYWLAHKALCSEKLDQWLCEKL

Variants of: B1
Settings: Bos taurus; pH 7.4; Thermal; CD; Tris-HCl 20 mM; CaCl2 1 mM; reversible: yes(>95%); structure 1HFZ; whole UniProt chain shown

Q136A
Tm: 52.1 °C and 56.2 °C | change of melting temperature, mutant - wild type (higher = more stable): -4.1 °C | ddG of mutation (higher = less stable): 0.96 kcal/mol | unfolding enthalpy (van 't Hoff): 73.4 kcal/mol

V61A
Tm: 51.7 °C and 56.2 °C | change of melting temperature, mutant - wild type (higher = more stable): -4.5 °C | ddG of mutation (higher = less stable): 0.93 kcal/mol | unfolding enthalpy (van 't Hoff): 64.3 kcal/mol

V61G
change of melting temperature, mutant - wild type (higher = more stable): -5.2 °C | ddG of mutation (higher = less stable): 1.15 kcal/mol | unfolding enthalpy (van 't Hoff): 68.6 kcal/mol

V61N
Tm: 55.1 °C | change of melting temperature, mutant - wild type (higher = more stable): -1.1 °C | unfolding enthalpy (van 't Hoff): 67.2 kcal/mol

H51Y
Tm: 56.5 °C | change of melting temperature, mutant - wild type (higher = more stable): 0.3 °C | unfolding enthalpy (van 't Hoff): 73.6 kcal/mol

H51A
change of melting temperature, mutant - wild type (higher = more stable): -11.6 °C | ddG of mutation (higher = less stable): 2.13 kcal/mol | unfolding enthalpy (van 't Hoff): 50.4 kcal/mol

A125S
change of melting temperature, mutant - wild type (higher = more stable): -6.1 °C | ddG of mutation (higher = less stable): 1.05 kcal/mol | unfolding enthalpy (van 't Hoff): 51.6 kcal/mol

Q73A
Tm: 54.3 °C and 56.2 °C | change of melting temperature, mutant - wild type (higher = more stable): -1.9 °C | ddG of mutation (higher = less stable): 0.41 kcal/mol | unfolding enthalpy (van 't Hoff): 67.6 kcal/mol

Y122A
change of melting temperature, mutant - wild type (higher = more stable): -10.7 °C | ddG of mutation (higher = less stable): 2.39 kcal/mol | unfolding enthalpy (van 't Hoff): 64.3 kcal/mol

Y122P
Tm: 55.1 °C and 56.2 °C | change of melting temperature, mutant - wild type (higher = more stable): -1.1 °C | ddG of mutation (higher = less stable): 0.22 kcal/mol | unfolding enthalpy (van 't Hoff): 62.1 kcal/mol

W137H
Tm: 52.9 °C and 56.2 °C | change of melting temperature, mutant - wild type (higher = more stable): -3.3 °C | ddG of mutation (higher = less stable): 0.6 kcal/mol | unfolding enthalpy (van 't Hoff): 56.2 kcal/mol

W137Y
change of melting temperature, mutant - wild type (higher = more stable): -5.4 °C | ddG of mutation (higher = less stable): 1.17 kcal/mol | unfolding enthalpy (van 't Hoff): 67.2 kcal/mol

I78W
Tm: 51.7 °C and 56.2 °C | change of melting temperature, mutant - wild type (higher = more stable): -4.5 °C | ddG of mutation (higher = less stable): 0.93 kcal/mol | unfolding enthalpy (van 't Hoff): 65 kcal/mol

L129H
change of melting temperature, mutant - wild type (higher = more stable): 6.3 °C | ddG of mutation (higher = less stable): -1.39 kcal/mol | unfolding enthalpy (van 't Hoff): 77.4 kcal/mol

L129E
Tm: 55.1 °C and 56.2 °C | change of melting temperature, mutant - wild type (higher = more stable): -1.1 °C | ddG of mutation (higher = less stable): 0.19 kcal/mol | unfolding enthalpy (van 't Hoff): 58.6 kcal/mol

L129R
Tm: 58.1 °C and 56.2 °C | change of melting temperature, mutant - wild type (higher = more stable): 1.9 °C | ddG of mutation (higher = less stable): -0.43 kcal/mol | unfolding enthalpy (van 't Hoff): 76.5 kcal/mol

K133N
change of melting temperature, mutant - wild type (higher = more stable): 10.7 °C | ddG of mutation (higher = less stable): -2.65 kcal/mol | unfolding enthalpy (van 't Hoff): 91.3 kcal/mol

K133Q
Tm: 53.5 °C and 56.2 °C | change of melting temperature, mutant - wild type (higher = more stable): -2.7 °C | ddG of mutation (higher = less stable): 0.6 kcal/mol | unfolding enthalpy (van 't Hoff): 69.5 kcal/mol

K133E
Tm: 53 °C | change of melting temperature, mutant - wild type (higher = more stable): -3.2 °C | unfolding enthalpy (van 't Hoff): 62.9 kcal/mol

H126Y
Tm: 55.2 °C and 56.2 °C | change of melting temperature, mutant - wild type (higher = more stable): -1 °C | ddG of mutation (higher = less stable): 0.19 kcal/mol | unfolding enthalpy (van 't Hoff): 62.9 kcal/mol

H126W
change of melting temperature, mutant - wild type (higher = more stable): -8.7 °C | ddG of mutation (higher = less stable): 1.72 kcal/mol | unfolding enthalpy (van 't Hoff): 57.8 kcal/mol

H126A
Tm: 52.1 °C and 56.2 °C | change of melting temperature, mutant - wild type (higher = more stable): -4.1 °C | ddG of mutation (higher = less stable): 0.79 kcal/mol | unfolding enthalpy (van 't Hoff): 60.5 kcal/mol

W123Y
Tm: 56.2 °C | ddG of mutation (higher = less stable): 2.44 kcal/mol
